Measured values reported in patent US20220226469A1.

target: Fc tagged human SIRPα (ACRO #SIG-H5251, genotype variant 1) (human) (UniProt P78324); assay: solid-phase ELISA on plate-coated Fc tagged human SIRPα; apparent Kd
Sequence (P78324 31-370, change not shown): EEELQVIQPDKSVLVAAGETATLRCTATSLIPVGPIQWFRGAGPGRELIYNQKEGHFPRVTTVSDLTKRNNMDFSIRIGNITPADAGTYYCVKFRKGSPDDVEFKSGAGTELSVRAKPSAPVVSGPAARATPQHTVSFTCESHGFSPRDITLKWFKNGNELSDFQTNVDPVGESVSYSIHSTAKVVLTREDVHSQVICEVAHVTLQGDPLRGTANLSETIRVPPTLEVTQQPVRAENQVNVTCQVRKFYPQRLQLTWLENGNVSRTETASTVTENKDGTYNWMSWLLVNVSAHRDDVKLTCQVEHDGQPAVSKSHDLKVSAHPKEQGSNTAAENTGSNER

| Kd | Binder |
| --- | --- |
| 0.165 nM | SIRP12 (antibody, human IgG4 S228P, kappa, V domains shown) VH: QVQLVQSGAEVKKPGASVKVSCKASGYSFTDYFLNWVRQAPGQGLEWMGRINPYNGDSFINQNFRDRVTMTRDTSTSTVYMELSSLRSEDTAVYYCARGGYDGYFIAYFDYWGAGTTVTVSS VL: DIQMTQSPSSLSASVGDRVTITCKASQDINSHLSWYQQKPGKAPKLLIYRANRLATGVPSRFSGSGSGTDFTFTISSLEYEDIATYYCLQYDEFPYTFGGGTKLEIKR |
| 0.608 nM | SIRP15 (antibody, human IgG4 S228P, kappa, V domains shown) VH: QVQLVQSGAEVKKPGSSVKVSCKASGYSFTDYFLNWVRQAPGQGLEWMGRINPYNGDSFINQNFRDRVTITADKSTSTAYMELSSLRSEDTAVYYCARGGYDGYFIAYFDYWGAGTTVTVSS VL: DIQMTQSPSSLSASVGDRVTITCKASQDINSHLSWYQQKPGKAPKLLIYRANRLATGVPSRFSGSGSGTDFTFTISSLEYEDIATYYCLQYDEFPYTFGGGTKLEIKR |
| 0.364 nM | SIRP18 (antibody, human IgG4 S228P, kappa, V domains shown) VH: EVQLVQSGAEVKKPGESLKISCKGSGYSFTDYFLNWVRQMPGKGLEWMGRINPYNGDSFINQNFRDQVTISADKSISTAYLQWSSLKASDTAMYYCARGGYDGYFIAYFDYWGAGTTVTVSS VL: DIQMTQSPSSLSASVGDRVTITCKASQDINSHLSWYQQKPGKAPKLLIYRANRLATGVPSRFSGSGSGTDFTFTISSLEYEDIATYYCLQYDEFPYTFGGGTKLEIKR |
| 0.274 nM | SIRP21 (antibody, human IgG4 S228P, kappa, V domains shown) VH: QVQLVQSGAEVKKPGASVKVSCKASGYSFTDYFLNWVRQAPGQGLEWMGRINPYNGDSFINQNFRDRVTMTVDTSTSTVYMELSSLRSEDTAVYYCARGGYDGYFIAYFDYWGAGTTVTVSS VL: DIQMTQSPSSLSASVGDRVTITCKASQDINSHLSWYQQKPGKAPKLLIYRANRLATGVPSRFSGSGSGTDFTFTISSLEYEDIATYYCLQYDEFPYTFGGGTKLEIKR |
| > 10 nM | SIRP10 (antibody, V domains shown) VH: EVQLQESGAELVRPGTSVKMSCKAAGYTFSNYLIGWIKQRPGHGLEWIGDIYPGDNNTNYNEKFRVKATLTADTSSNTAYMHLTSLTSEDSAIYYCAGGTDYDGFANWGQGTLVTVSA VL: ENVLTQSPAIMSASLGEKVTMSCRASSSVNYMYWYQQKSDASPKLWIYYTSKLAPGVPARFSGSGSGNSYSLTISSMEGEDAATYYCQQFTSSPFTFGSGTKLEIK |
| 0.164 nM | SIRP23 (antibody, human IgG4 S228P, kappa, V domains shown) VH: EVQLQQSGPDLVKPGASVKISCKASGYSFTDYFLNWVKQSHGKSLEWIGRINPYNGDSFINQNFRDKATLTVDKSSTTAHMDLLSLTSEDSAIYYCGRGGYDGYFIAYFDYWGQGSLVTVSA VL: DIKMTQSPSSMYASLGQRVTITCKASQDINSHLSWFQEKPGKSPKTLIYRANRLADGVPSRFSGSGSGQDYFLTISSLEYEDVGIYYCLQYDEFPYTFGGGTKLEIKR |
| 0.161 nM | SIRP4 (antibody, V domains shown) VH: EVQLQQSGPDLVKPGASVKISCKASGYSFTDYFLNWVKQSHGKSLEWIGRINPYNGDSFINQNFRDKATLTVDKSSTTAHMDLLSLTSEDSAIYYCGRGGYDGYFIAYFDYWGQGSLVTVSA VL: DIKLTQSQSSMYSSLGQRVTITCKASQDINSHLSWFQEKPGKSPKTLIYRANRLADGVPSRFSGSGSGQDYFLTISSLEYEDVGIYYCLQYDEFPYTFGGGTKLEIK |
| 0.131 nM | SIRP6 (antibody, V domains shown) VH: QIQLVQSGPELKKPGETVKISCKASGYTFTDYGVNWVKQGPGKDLQWMGWVNTNTRESTYVEDFKGRFAFSLETSASTAYLQINNLKNEDSSTYFCARGAYDAYYYYYGMDYWGQGTSVTVSS VL: DIQMTQSPASLSASVGETVTITCRASENIYSYLTWYKQKQGKSPQLLVYNAKTLAEGVPSRFSGSGSGTQFSLKINSLQPEDFGSYYCQHHYGSPRTFGGGTKLEIK |
| 0.289 nM | SIRP3 (antibody, mouse IgG1, kappa, V domains shown) VH: EVQLQQSGPEVVKPGASVKMSCKASGYTFTSYVMHWVKQKPGQGLEWIGYINPYNDGPKYNEKFKGKATLTSDKSSSTAYMELSSLTSEDSAVYFCARWDYFNSASGFAFWGQGTLVTVSA VL: EIVLTQSPTTMAASPGEKITIICSASSIIGSDFLHWYQQRPGFSPKFLIYRTSILASGVPTRFTGSGSGTSYSLTIGTMEAEDVATYYCQQGSGLPLTFGSGTKLEMKR |
| 0.065 nM | SIRP5 (antibody, V domains shown) VH: QVQLQQSAAELARPGASVKMSCKASGYTFTSYTMHWVKQRPGQGLEWIGYINPTIGYTEYNQKFKDKTTLTADKSSSTAYMQLSSLTSEDSAVYYCVRLVITSVLGRAMDYWGQGTSVTVSS VL: QIVLTQSPALMSASPGEKVTMTCSASSSVSYMYWFQQKPRSSPKPWIYLTSNLASGVPARFSGSGSGTSYSLTISSMEAEDAATYYCQQWSGNPFTFGSGTKLEIK |
| 0.583 nM | SIRP9 (antibody, V domains shown) VH: EVQLQESGAELVRPGASVKLSCKALGYTFTDYEIHWVKETPVYGLEWIGDIHPGSGGTANNQKFKGKATLTADKSSNTAYMELSSLTSEDSAVYYCTRAVSGYYAMDYWGQGTSVTVSS VL: DIQMTQSSSSFSGSLGDRLTINCKASEDIYDRVAWYQQKPGNAPRLLISGTASLETGVLSRFSGSGSGKDYTLSINGLQAEDVATYYCQQYWTTPWTFGGGTKLEIK |
| 0.182 nM | SIRP2 (antibody, mouse IgG1, kappa, V domains shown) VH: EVKLVESGGGLVQPGGSLKLSCAASGFSFSGCTMSWIRQTPERRLEWVAYISNGGDITYYPDTVKGRFTISRDNAKNSLYLQMSSLKSEDTAMYYCARLDGYYYAMDFWGQGTSVTVSS VL: DILLTQSPAILSVSPGERVSFSCRASQSIGTSIHWYQQRTNGSPRLLIKYGSESISGIPSRFSGSGSGTDFTLSINSVESEDIADYYCQQSNTWPLTFGDGTKLELKR |
| 0.197 nM | SIRP7 (antibody, V domains shown) VH: EVQLQQSGPELVKPGASVKMSCRASGYTFSTYVMHWIKHRPGQGLEWIGYINPNNDGPNYNEKFKGKATLTSDISSSTAYMELSSLTSEDSAVYFCSRWDSYNSAAGFAYWGHGTLVTVSA VL: EIVLTQSPTTMAASPGEKITIICSASSSISSNFLHWYQQKPGFSPRFLIYRTSILASGVPTRFSGSGSGTSYSLTIDTMEAEDVATYYCQQGSGLPLTFGSGTKLEIK |
| 0.039 nM | SIRP1 (antibody, mouse IgG1, kappa, V domains shown) VH: QVQLQQSGAELMKPGASVKISCKATGYSFTKYWIEWVKQRPGHGLEWIGEILPGSVITNYNEKFKGKATFTADTSSNTVYMQLSSLTSEDSAVYYCTKWGLYDSDDGVDYWGQGTTLTVSS VL: ENVLTQSPAIMSASLGEKVTMSCRASSGVNYMYWYQQKSDASPKLLIYYTSILAPGVPARFSGSGSGNSYSLTISSMEGEDAATYYCQQFTSSPYTFGGGTKLEIKR |
| 0.057 nM | SIRP8 (antibody, V domains shown) VH: EVQLQESGGGLVKPGGSLKLSCAASGFTLSTYTMSWVRQTPEKRLEWVAIITSGDTYTYYPDSVKGRFTISRDNAKNTLYLQMSSLKSEDTGMYYCTRDRPLFHWGQGTTLTVST VL: QIVLTQSPAIMSASPGEKVTMTCSASSSVSYMYWYQQKPGSSPRLLIYDTSNLASGVPVRFSGSGSGTSYSLTISRMEAEDAATYYCQQWSSFPWTFGGGTKLEIK |
